Data: paper PMC9337809 (Brain, 2022)

Experiments:
Test in all cases: ELISA
[1] = target: SOD protein aggregates (Homo sapiens (assumed), UniProt P00441)
[2] = target: α-synuclein protein aggregates (Homo sapiens, UniProt P37840)
[3] = target: Aβ(1–28), synthetic, aggregated in the presence of Ca2+ (Homo sapiens, UniProt P05067)
Sequence of Aβ(1–28), synthetic, aggregated in the presence of Ca2+ (P05067 672-699): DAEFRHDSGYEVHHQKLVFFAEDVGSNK

Sequence of SOD protein aggregates (P00441 whole entry): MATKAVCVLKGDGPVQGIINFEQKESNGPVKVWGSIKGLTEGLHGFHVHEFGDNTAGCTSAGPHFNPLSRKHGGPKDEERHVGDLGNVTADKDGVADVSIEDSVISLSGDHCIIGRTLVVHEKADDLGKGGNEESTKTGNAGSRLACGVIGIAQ

binding result [1] | binding result [2] | binding result [3] | Binder
no binding | no binding | – | B28, human monoclonal antibody raised against synthetic oligomeric amyloid-β (antibody, V domains shown) VH: QVQLVESGGGVVQPGRSVRLSCAATGFTFSSYGMHWVRQAPGKGLEWVAVIWFDGSNEYYADSVRGRFTISRDNSKNTLYLQMNSLRAEDTAVYYCARRGRVGVTRNYYYYNMDVWGQGTTVTVSS VL: AIQMTQSPSSLSASVGDRVTITCRASQGIRNDLGWFQQKPGKAPKLLIYPASSLQSGVPSRFSGSGSDTDFTLTISSLQPEDFATYYCLQDYNFPFTFGPGTKVDIK
no binding | no binding | binds | B24, human monoclonal antibody raised against synthetic oligomeric amyloid-β (antibody, V domains shown) VH: EVQLLESGGGLVQPGGSLRLSCAASGFTFSSYAMTWVRQAPGEGLEWVSTISGSGIRTYYADSVKGRFTISRDNSKNTMYLQMNSLRAEDTAVYYCAKDGLTGDRRWYFDLWGRGTLVTVSS VL: EIVMTQSPATLSLSPGERATLSCRASQSVSSSYFSWYQQKPGQAPRLLIYGASTRATGIPARFSGSGSGTDFTLTISSLQPEDFAVYYCQQDSNLPLTFGGGTKVEIK
